According to patent US20180282410A1 (Hoffmann-La Roche, published 2018):

T1: human (hu) Robo 4 extracellular domain (ECD)-precision site (PreS)-Avi-tag (Avi)-6x histidine (His) (human)
T1 construct: it holds the ECD with PreScission site, Avi-tag and His-tag; also called recombinant human Robo 4; human Robo 4
T1 chain: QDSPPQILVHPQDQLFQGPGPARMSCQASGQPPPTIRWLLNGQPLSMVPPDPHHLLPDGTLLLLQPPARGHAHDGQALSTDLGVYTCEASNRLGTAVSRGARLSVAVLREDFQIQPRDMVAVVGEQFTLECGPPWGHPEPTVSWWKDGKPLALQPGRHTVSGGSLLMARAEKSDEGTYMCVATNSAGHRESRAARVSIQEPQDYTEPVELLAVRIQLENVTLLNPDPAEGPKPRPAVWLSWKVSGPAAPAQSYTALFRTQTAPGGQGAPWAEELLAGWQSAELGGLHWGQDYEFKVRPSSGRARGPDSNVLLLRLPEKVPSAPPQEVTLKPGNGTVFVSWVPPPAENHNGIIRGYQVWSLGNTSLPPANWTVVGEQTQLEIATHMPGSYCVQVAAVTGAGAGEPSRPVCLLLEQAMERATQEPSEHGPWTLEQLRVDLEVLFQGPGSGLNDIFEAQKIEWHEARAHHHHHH

T2: recombinant cynomolgus Robo 4 ECD fused to AcTEV protease recognition site, Avi- and 6xHis-tag (cynomolgus)
T2 construct: Biotinylated in the avidity assay
T2 chain: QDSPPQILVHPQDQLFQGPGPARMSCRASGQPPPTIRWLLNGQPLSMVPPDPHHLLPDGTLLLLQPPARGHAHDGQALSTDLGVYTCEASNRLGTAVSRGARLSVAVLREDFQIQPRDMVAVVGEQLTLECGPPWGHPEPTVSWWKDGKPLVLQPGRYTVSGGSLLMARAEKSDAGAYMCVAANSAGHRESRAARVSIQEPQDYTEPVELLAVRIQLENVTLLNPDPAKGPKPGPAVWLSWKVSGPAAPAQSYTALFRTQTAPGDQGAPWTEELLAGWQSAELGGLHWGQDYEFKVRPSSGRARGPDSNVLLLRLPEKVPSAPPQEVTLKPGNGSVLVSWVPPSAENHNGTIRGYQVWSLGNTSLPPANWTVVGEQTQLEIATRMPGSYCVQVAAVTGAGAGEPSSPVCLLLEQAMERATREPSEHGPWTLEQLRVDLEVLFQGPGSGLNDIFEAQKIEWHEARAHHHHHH

T3: full-length human Robo 4 (on cells) (human, UniProt Q8WZ75 28-1007)
T3 construct: also called CHO-Robo 4; Robo 4 on HUVECs
T3 sequence: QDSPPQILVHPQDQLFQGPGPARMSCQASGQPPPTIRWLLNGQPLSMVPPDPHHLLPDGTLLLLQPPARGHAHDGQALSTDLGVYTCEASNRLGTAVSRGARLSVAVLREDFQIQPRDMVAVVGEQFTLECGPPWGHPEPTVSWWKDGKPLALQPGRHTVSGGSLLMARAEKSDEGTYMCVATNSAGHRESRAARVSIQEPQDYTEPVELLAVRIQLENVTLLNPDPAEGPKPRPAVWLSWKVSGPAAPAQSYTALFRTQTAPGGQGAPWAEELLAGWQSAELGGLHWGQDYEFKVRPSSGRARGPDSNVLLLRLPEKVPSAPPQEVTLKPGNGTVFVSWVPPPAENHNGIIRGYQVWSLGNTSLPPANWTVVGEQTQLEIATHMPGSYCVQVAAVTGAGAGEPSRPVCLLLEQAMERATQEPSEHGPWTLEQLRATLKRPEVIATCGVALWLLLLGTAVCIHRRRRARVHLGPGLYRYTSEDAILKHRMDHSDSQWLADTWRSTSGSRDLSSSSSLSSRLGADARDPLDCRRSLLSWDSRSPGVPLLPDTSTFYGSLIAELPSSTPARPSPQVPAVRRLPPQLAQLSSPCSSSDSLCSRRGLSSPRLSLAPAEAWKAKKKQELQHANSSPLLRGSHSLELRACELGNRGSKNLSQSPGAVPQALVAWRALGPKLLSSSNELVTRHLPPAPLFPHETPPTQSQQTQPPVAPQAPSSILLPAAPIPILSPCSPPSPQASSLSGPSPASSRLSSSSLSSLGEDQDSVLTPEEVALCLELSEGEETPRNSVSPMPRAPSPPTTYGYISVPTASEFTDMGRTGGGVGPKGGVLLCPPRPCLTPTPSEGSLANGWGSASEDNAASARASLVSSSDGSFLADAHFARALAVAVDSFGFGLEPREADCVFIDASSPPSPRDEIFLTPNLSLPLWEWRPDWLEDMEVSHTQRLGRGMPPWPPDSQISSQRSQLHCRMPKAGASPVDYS

B1: 01F05 anti-Robo 4 IgG (antibody, V domains shown)
VH: QVQLKQSGAELVKPGASVKISCKTSVYTFTYGYMHWVEQKPGQGLEWIGRIDPDSGNSMYNQKFQGRATLTRDKSSSTVYMELRSLTSEDSAVYYCARSMRYSGYRDYALDLWGQGTQVTVSS
VL: QLVLTQSPSASASLGASVKLTCTLSSQHSSYGITWLQQHPDKAPKYVMYLKSDGSHTKGADIPDRFSGSSSGVHRYLSISNVQPEDEAIYFCVTYDSTHVFGSGTQLTVLG
notes: also called 01F05 IgG
B2: 7G2 anti-Robo 4 IgG (antibody, V domains shown)
VH: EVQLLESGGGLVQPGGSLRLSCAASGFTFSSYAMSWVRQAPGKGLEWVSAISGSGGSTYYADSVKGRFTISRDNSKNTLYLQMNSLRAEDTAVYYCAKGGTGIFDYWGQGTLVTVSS
VL: EIVLTQSPGTLSLSPGERATLSCRASQSVSSSYLAWYQQKPGQAPRLLIYGASSRATGIPDRFSGSGSGTDFTLTISRLEPEDFAVYYCQQGQLPPRTFGQGTKVEIK
notes: also called 7G2 IgG
B3: 01E06 anti-Robo 4 IgG (antibody, V domains shown)
VH: EVQLVESGGGLSQPGNSLKLSCEASGFTFRNYDMSWVRQAPGKGLEWVAYISSGGGPIYYVDAVKGRFTISRDNAKNLLFLQMNNLRSEDTAVYYCARDLADIGVFDYWGQGTMVTVSS
VL: DFKMTQSPDILSPSLGESVTITCQSSQNIYSNLAWYQQKPGEHPKLLIYTASILADGIPSRFTGSGSGTQFSLKISSLQPDDVANYYCQQYVYYRTFGPGTKLEIK
notes: also called 01E06 IgG
B4: 01F09 anti-Robo 4 IgG (antibody, V domains shown)
VH: QIQLQESGPGLVKPSQSLSLTCSVTGYSISSGSLWTWIRQFPGNNLEWMGYISYAGGIDYNPSLTSRISITRDTSRNQFFLQLESVTTQDTATYYCATPGGYPFHFDYWGQGTMVTVSS
VL: QPVLTQSPSASASLGASVKLTCTLNSQFSTYNIGWYQQHRDKPPKYVMFVKGDGGHSKADGIPDRFSGSSSGADRYLTISNIQAEDEAIYFCGADYNNAGQYGCVFGSGTHFTVLG
notes: also called 01F09 IgG

Biological target: T1, human (hu) Robo 4 extracellular domain …
Assay: SPR Biacore T100, biotinylated antigen on streptavidin chip, IgG as analyte (avidity)
Procedure: (§1) All surface plasmon resonance (SPR) experiments are performed on a Biacore T100 at 25° C. with HBS-EP as running buffer (0.01 M HEPES pH 7.4, 0.15 M NaCl, 3 mM EDTA, 0.005% Surfactant P20 (Biacore)).
(§2) Determination of avidity was done by direct immobilization of biotinylated recombinant human, murine and cynomolgus Robo 4 on a Streptavidin sensor chip. Immobilization level ranged from 300 to 1000 RU. Anti-Robo 4 antibodies were passed through the flow cells for 220 s at 30 μl/min in a concentration range from 0.78-50 nM. Dissociation was monitored for 220 s. For the blank and the 25 nM injection dissociation was monitored for 600 s.
(§3) Kinetic constants were derived using the Biacore T100 Evaluation Software (vAA, Biacore), to fit rate equations for 1:1 Langmuir binding by numerical integration.

Kd [nM] | koff [s⁻¹] | kon [M⁻¹ s⁻¹] | Binder
0.093 | 6.13e-05 | 657000 | B1
0.421 | 0.000152 | 361000 | B2
0.0007 | ~1.25e-06 | 1.76e+06 | B3
0.018 | 3.78e-05 | 2.1e+06 | B4

Biological target: T2, recombinant cynomolgus Robo 4 ECD fused …
Assay: as above
Procedure: as §1, §2, §3

Kd [nM] | koff [s⁻¹] | kon [M⁻¹ s⁻¹] | Binder
0.58 | 0.000475 | 822000 | B1
0.94 | 0.000291 | 310000 | B2
0.0001 |  | 1.13e+06 | B3
0.37 | 0.000817 | 2.22e+06 | B4

biological target: T3, full-length human Robo 4 (on cells); assay: flow cytometry on CHO cells stably expressing full-length human Robo 4
Procedure: Binding of anti-Robo 4 IgGs was tested on CHO cells stably expressing full-length human Robo 4 (CHO-Robo 4). Briefly, cells were harvested, counted and checked for viability.

EC50 [nM] | Binder
6.1 | B1
4.6 | B2
1.1 | B3
2.5 | B4
